Source: the RNAGym collection of RNA variant scans (doi:10.1021/acssynbio.7b00057)

B1: Pistol ribozyme (parent)
chain: GGGUCGUUGUUCCAUAAUCGCGUGGAUAUGGCACGCAAGUUUCUACCGGGCACCGUAAAUGUCCGACUGGAGCCGUUCGGGCGGCUAUAAACAGACCUCAGGCCCGAAGCGUGGCGGCACCUGCCGCCGGUGGUAAAAAAGAUCGGAAGAGCACACGUCU

Variants of: B1
Test: aptazyme ON/OFF ratio, guanine; higher = stronger switching; co-transcriptional cleavage with and without guanine

Variant	aptazyme ON/OFF ratio
U7A U10A U11A C12U C13A	1.15
U8G G9U U10G C12G	1.02
U8C G9A C12A C13U	1.17
U7C G9A U10A C13A	1.23
U11C C12A C13U	1.31
U7C U8G G9C U10G U11A C12U C13U	1.27
U7C U8A G9C U10G U11G	1.1
U7C U8G U11G C13A	1.13
U8C G9C U11A C12U C13G	1.12
U7C U8C G9U U10A U11A C13U	1.22
U7G U8A U10A U11G C12G C13A	1.26
U8A G9U U10C U11G C13G	1.05
U8A G9A U10A U11A C12U C13U	1.21
U8A G9A U10A U11C C12U	1.08
U7A U8A U11A	1.22
U8G G9C U10C C12G	1.08
U7C U8C U10G U11C C12G C13A	1.17
U7G U8G G9C U11G C13A	1.3
U7G U8G G9A U11G C13G	1.17
U8A G9A U11C C12A C13A	1.07
U7C U8C G9C C12G C13A	1.08
U7A G9U U10G U11G C12A C13U	1.21
U7C G9C U10G C12U	1.2
U11C C13U	1.24

Variant	aptazyme ON/OFF ratio
U7G U8C U10A U11C C12G	1.16
U7A U8G U10C U11A C12G	1.48
U7C G9C U10A U11G C12G	1.29
U7A U8C G9C U10G U11A	1.04
U7C U8C U10C U11G C12A C13A	1.32
U7A U8A U10A U11C C12G	1.1
U7A U8A U10G U11A C13A	1.19
U7A U8A G9U U10G U11A C13A	1.02
U8C G9A C12A	1.35
U8G G9A U11C C12A C13U	1.3
U7G U8G G9C U10G U11C C12G C13G	1.05
U7A U8G U10G U11C C13A	1.11
U7C U8G U10G U11A C12A C13U	1.2
U7G U8A U10G C13U	1.29
U7G U8A U10A U11A C13G	1.15
U7G U8A G9U U10G U11G C12G	1.29
U7C U8A U10G U11G C13G	1.12
U7G U8A U10A U11C C12G C13G	1.07
U8G G9U U10C C13U	1.03
U7G U8A G9C U10C	2.1
U7A U8A G9A U10G U11A C12U	1.03
U7G U8A G9U U10C U11C C12A C13G	1.23
U7A U8G U10A U11A C12G C13U	1.63
U7A U8C G9U U11C C12U	1.15

Variant	aptazyme ON/OFF ratio
U7A U8A G9U U11A C12G C13A	0.953
U8A G9U U10A U11G	1.42
U7C U8C G9C U10G U11A C12A C13A	1.16
U7G U8G G9C U10C U11G C13G	1.27
U7C U8A G9C U10C C12A C13G	1.07
U7A U8C G9C U10A C12A C13U	1.09
U7A U8C G9U U10A U11G C12G C13G	1.26
U7C U8G G9A U10A U11A	1.31
U7G U8A G9C U10C U11C C13G	1.01
U8G G9C U10G U11A C12G C13G	1.29
U7A U8C G9A U11C C12A	1.21
U8C G9C U10A U11A C12U	1.05
U8A U10A	1.07
U7A U8C U10C U11G C12A C13U	1.18
U7C U8C G9U U10A U11C C12A C13U	1.18
U8A G9U U10C C13G	1.04
U7C U8A G9C U10G U11C C12A C13U	1.43
U7A U8G C13A	1.42
U7G U8A G9C U11C C12G C13G	1.03
U7C U8A U10C C12A C13U	1.24
U7C U8C U10A C12U C13A	1.06
U8C G9A U10A U11A C12G C13G	1.17
U7A U8G G9C U10C C12A C13G	1.05
U7G G9A U10G C13G	1.13

Variant	aptazyme ON/OFF ratio
U8C G9C U10C U11A C12A C13G	1.05
U7A U8G U10G U11A C12U C13A	1.21
U7A U8C G9A U10A U11C C12A	1.15
U7C U8A G9C U10G U11G C13A	1.13
U7C C12A C13A	1.16
U7A U8C U10G U11G C13G	1.2
U7G G9U U11C	4.69
U7C U8G U10A U11A C13G	1.13
U7C U8C G9C U11A C12G C13U	1.03
U8A U11A C12A C13U	1.25
U7G U8G U10G U11C C12G C13G	1.25
U8G G9C U10C U11G C12A C13U	1.04
U7G U8G G9U U10A U11C C12U C13A	1.16
U7C G9A U10C C13U	1.96
U8A G9A U10G U11A C13U	1.06
U7G U8G G9C U11G C12A C13A	1.14
U7A U8C U10G C12U C13A	1.21
U7G G9C U10C U11A C12A C13U	1.25
U7A U10G C13U	1.27
U7G U8A G9A U10C U11C C12A C13U	1.08
U8G U10A U11G C12U C13U	1.12
U7A G9U U11C C13G	1.08
U7G U8A U10C U11A C13U	1.44
U7G U8A G9C U10C U11A C12G C13G	1.05

Variant	aptazyme ON/OFF ratio
U7A U8A G9C U10A U11C C13G	1.05
U7C U8C G9U U11G C12G	1.19
U7A U8G G9A U10A U11A C12A	1.45
U7G U8C U10C U11A	2.21
U10G U11G C12U	1.38
U7A U8A G9A U10C U11A C13A	1.11
U7A U8G U10A U11G C12A C13G	1.21
U8G G9C U11C C12G C13U	1.04
U7C U8G G9U U10A U11G C13A	1.13
U7C G9A U10A U11C C12G C13G	1.46
U7G U8C G9U C13U	2.37
U7C U8G G9U U11C C12G C13G	1.17
U7G U8G G9U U10C U11A C12A C13A	1.3
U7C U8C G9A U11C C12U	1.66
U7C U8C G9A U10A U11C C12U C13U	1.13
U7G U8G G9U U11C C12A C13U	1.23
U7A U8G U11G C12G C13U	1.42
U7A U8G G9A U10G C13U	1.31
U7A U8C C12U C13A	1.3
U7G U8A G9C U10A U11A C12A	1.03
U7A G9C U11C C12U C13U	1.16
U7C U8C G9C U10A U11C	1.39
U7G U8A G9U U10C U11G C12A C13U	1.11
U8C G9A U10A U11C C12U C13U	1.14

Variant	aptazyme ON/OFF ratio
U7A U8A G9A U10A U11A C13A	1.16
U8G G9U U10C C12U C13G	1.08
U7G U8C G9A U10G U11C	1.04
U7C U8A G9A U10A C12G C13G	1.24
U7G U8G G9U C12A C13A	1.17
U8C G9C U10C U11G	0.956
U7G U8C G9C U10G U11C C12G	1.21
U7C U8A G9A U10C U11A C12U C13U	1.11
U8C U10G U11A C12U C13A	1.35
U7C U8A G9U U10G U11C C12G C13U	1.24
U11G C12A C13A	1.14
U7A G9A U10C U11C	1.01
U7G U10C U11G C12G C13G	1.07
U7A U8G U10G U11G C12G	1.31
U8A U10G U11C C12G	1.53
U8G G9A U10A U11A C12G C13A	1.22
U7C U8C G9A U10A U11A C12A C13G	1.16
U7A U8G U10C U11C C13A	1.06
U8C U10C U11C C13U	1.08
U7C U8A U10G U11C C12A C13U	1.45
U7C U8G G9U U11G C12G C13G	1.18
U7A U8A G9U U11A C12U C13U	1.28
U7C U8C U11A C12A	1.34
U7G U8G U11G C13A	1.21

Variant	aptazyme ON/OFF ratio
U7C U8C G9C U10A C12G C13G	1.17
U7C U8C C12A C13G	1.1
U7A U10A C13U	1.07
U7C U8A G9C U10G U11C C13G	1.05
G9A U10A C12U	1.86
U7C U8A G9U U10G C12A C13U	1.17
U7A G9U U10A U11G C12G C13G	1.2
U8A G9A U10G U11C C12A	1.15
U7A U8C U10A U11G C12A	1.1
G9U U10A C12U	1.41
U7C U8A U10G C12U C13G	1.13
U7A G9C U10G U11A C13A	1.02
U7G U8C U10G U11A C12U	1.22
U8G G9U U10G U11C C12U C13G	1.03
U7A G9U U10C U11A C12A C13U	1.21
U7G G9U U10G U11A C13A	1.15
U7A U8A G9C U10A U11A C12U C13A	1.2
U7G U10G U11C C12U C13G	1.3
U8G U10C U11G C13U	1.05
U7C G9A U10C U11A C12G C13A	1.11
U7C U8A G9U U10G C12A C13G	1.13
U7A U8C G9U U10G C13G	1.16
G9A U10C U11A C12U	1.78
